Data as given in patent publication EP4799649A1 (RemeGen Co., Ltd., dated 2026).
Values belong to the binder of their own block, whether it stands above or below them.

Tests used:
Blys homotrimer = target: T1, Blys homotrimer (UniProt Q9Y275 134-285); experiment: ELISA on Blys homotrimer
T1 construct: also called BAFF; B lymphocyte stimulator

APRIL homotrimer = target: T2, APRIL homotrimer (UniProt O75888 105-250, limits assumed); experiment: ELISA on APRIL homotrimer
T2 construct: also called a proliferation-inducing ligand
T2 sequence (looked up): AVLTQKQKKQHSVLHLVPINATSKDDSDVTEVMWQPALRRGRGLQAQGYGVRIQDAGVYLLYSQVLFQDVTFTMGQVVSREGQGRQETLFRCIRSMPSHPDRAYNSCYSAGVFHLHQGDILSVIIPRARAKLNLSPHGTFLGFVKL

EC50 (Blys homotrimer): 219 pM
EC50 (APRIL homotrimer): 1100 pM
B1: telitacicept (Fc fusion)
chain: SRVDQEERFPQGLWTGVAMRSCPEEQYWDPLLGTCMSCKTICNHQSQRTCAAFCRSLSCRKEQGKFYDHLLRDCISCASICGQHPKQCAYFCENKLRSPVNLPPELDKTHTCPPCPAPEAEGAPSVFLFPPKPKDTLMISRTPEVTCVVVDVSHEDPEVKFNWYVDGVEVHNAKTKPREEQYNSTYRVVSVLTVLHQDWLNGKEYKCKVSNKALPSSIEKTISKAKGQPREPQVYTLPPSRDELTKNQVSLTCLVKGFYPSDIAVEWESNGQPENNYKTTPPVLDSDGSFFLYSKLTVDKSRWQQGNVFSCSVMHEALHNHYTQKSLSLSPGK
notes: TACI-Fc fusion protein (truncated TACI plus optimized human IgG1 Fc); also called RC18; Tai'ai

EC50 (Blys homotrimer): 57 pM
EC50 (APRIL homotrimer): 128 pM
B2: povetacicept (Fc fusion)
chain: SLSCRKEQGEYYDHLLRDCISCASICGQHPKQCADFCENKLRSGSGGGGSEPKSSDKTHTCPPCPAPEAEGAPSVFLFPPKPKDTLMISRTPEVTCVVVDVSHEDPEVKFNWYVDGVEVHNAKTKPREEQYNSTYRVVSVLTVLHQDWLNGKEYKCKVSNKALPAPIEKTISKAKGQPREPQVYTLPPSRDELTKNQVSLTCLVKGFYPSDIAVEWESNGQPENNYKTTPPVLDSDGSFFLYSKLTVDKSRWQQGNVFSCSVMHEALHNHYTQKSLSLSPG
notes: Fc fusion protein of an engineered TACI domain
